Results from the RNAGym collection of RNA variant scans (doi:10.1093/molbev/msab373).

B1: Azoarcus group I ribozyme (parent)
chain: GUGCCUUGCGCCGGGAAACCACGCAAGGGAUGGUGUCAAAUUCGGCGAAACCUAAGCGCCCGCCCGGGCGUAUGGCAACGCCGAGCCAAGCUUCGGCGCCUGCGCCGAUGAAGGUGUAGAGACUAGACGGCACCCACCUAAGGCAAACGCUAUGGUGAAGGCAUAGUCCAGGGAGUGGCGAAAGUCACACAAACCGG

Variants of: B1
Test: reverse-splicing fitness (ratio to wild type); higher = more active; in vitro selection; Mg2+ level not given
Outline: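 An in vitro group I ribozyme library with randomized positions was T7-transcribed and gel-purified. In triplicate, 10 pmol RNA in EPPS pH 7.5 was reacted with 50 pmoles of a 30-nt RNA substrate for 1 h at 37 °C across several added MgCl2 levels (1–48 mM), then stopped with EDTA. Products were reverse transcribed from a substrate-complementary primer, PCR-amplified and sequenced (HiSeq 4000). Fitness is a variant's read proportion after selection over that before, normalised to wild type.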

Going from C82U A111U A120G A145U C169U U176A to C82U A111U A120G U176A, the reverse-splicing fitness falls from 0.0203 to 0.0123.

First: C82U A111U A120G U176G
Second: C82U A111U A120G U176C
The reverse-splicing fitness of the first is lower: 0.00474 for the first, 0.0165 for the second.

Compared with C82U A111U A120G A145G C169A, C82U A111U A120G A145G C169U is lower in reverse-splicing fitness: 0.01 for the first, 0.00849 for the second.

Compared with C82U A111U A120G A145G C169G, C82U A111U A120G A145U C150A C169G is lower in reverse-splicing fitness: 0.00995 for the first, 0.00728 for the second.

First: C82U A111U A120G A145U C150A C169A
Second: C82U A111U A120G A145U C150A C169U
The reverse-splicing fitness of the first is higher: 0.00884 for the first, 0.0062 for the second.

First: C82U A111U A120G C150G U176C
Second: C82U A111U A120G C150G U176G
The reverse-splicing fitness of the first is higher: 0.00776 for the first, 0.00288 for the second.

Compared with C82U A111U A120G C150G U176A, C82U A111U A120G C150G C169G U176C is lower in reverse-splicing fitness: 0.00524 for the first, 0.00449 for the second.

First: C82U A111U A120G C150G C169G U176G
Second: C82U A111U A120G C150G C169G U176A
The reverse-splicing fitness of the first is lower: 0.00425 for the first, 0.00605 for the second.

Going from C82U A111U A120G C169A U176G to C82U A111U A120G C169A U176A, the reverse-splicing fitness rises from 0.00417 to 0.0178.

Compared with C82U A111U A120G C169A U176C, C82U A111U A120G A145U C169G U176G is lower in reverse-splicing fitness: 0.0221 for the first, 0.00402 for the second.

Going from C82U A111U A120G A145U C169G U176A to C82U A111U A120G A145U C169G U176C, the reverse-splicing fitness rises from 0.0111 to 0.0121.

Going from C82U A111U A120G A145U C150A C169A U176A to C82U A111U A120G A145U C150A C169A U176C, the reverse-splicing fitness falls from 0.0137 to 0.0092.

Going from C82U A111U A120G A145U C150A C169A U176G to C82U A111U A120G A145G C150U U176C, the reverse-splicing fitness rises from 0.00508 to 0.0171.

Compared with C82U A111U A120G A145G C150U U176G, C82U A111U A120G A145G C150U U176A is higher in reverse-splicing fitness: 0.00569 for the first, 0.00911 for the second.

Going from C82U A111U A120G A145G C169A U176C to C82U A111U A120G A145G C169A U176G, the reverse-splicing fitness falls from 0.031 to 0.00433.

Compared with C82U A111U A120G A145G C169A U176A, C82U A111U A120G A145U C169U is lower in reverse-splicing fitness: 0.0205 for the first, 0.00798 for the second.

Going from C82U A111U A120G A145U C169A to C82U A111U A120G A145U C169G, the reverse-splicing fitness rises from 0.00696 to 0.00838.

Going from C82U A111U A120U A145C C150A C169G to C82U A111U A120U A145C C150A C169U, the reverse-splicing fitness rises from 0.00215 to 0.00254.

Going from C82U A111U A120U A145C C150A C169A to C82U A111U A120G A145U C150U C169U U176C, the reverse-splicing fitness rises from 0.00214 to 0.0139.

Going from C82U A111U A120G A145U C150U C169U U176A to C82U A111U A120G A145U C150U C169U U176G, the reverse-splicing fitness falls from 0.0203 to 0.00432.

First: C82U A111U A120G A145U
Second: C82U A111U A120G A145U C150G C169U U176A
The reverse-splicing fitness of the first is higher: 0.0147 for the first, 0.0116 for the second.

Going from C82U A111U A120G A145U C150G C169U U176C to C82U A111U A120G A145U C150G C169U U176G, the reverse-splicing fitness falls from 0.0111 to 0.00463.

Compared with C82U A111U A120U A145C C150A C169G U176A, C82U A111U A120U A145C C150A C169G U176C is lower in reverse-splicing fitness: 0.00269 for the first, 0.00255 for the second.

Going from C82U A111U A120U A145C C150A C169G U176G to C82U A111U A120G A145U C150A C169G U176G, the reverse-splicing fitness rises from 0.00189 to 0.0044.

First: C82U A111U A120G A145U C150A C169G U176A
Second: C82U A111U A120G A145U C150A C169G U176C
The reverse-splicing fitness of the first is lower: 0.0132 for the first, 0.0136 for the second.

Going from C82U A111U A120G C150G C169G to C82U A111U A120G C150G C169A, the reverse-splicing fitness rises from 0.00757 to 0.00782.

Going from C82U A111U A120G C150G C169U to C82U A111U A120U, the reverse-splicing fitness rises from 0.00755 to 0.0242.

First: C82U A111U A120G C169G U176C
Second: C82U A111U A120G C169G U176A
The reverse-splicing fitness of the first is higher: 0.0225 for the first, 0.0203 for the second.

First: C82U A111U A120G C169G U176G
Second: C82U A111U A120G A145G C150U C169U U176C
The reverse-splicing fitness of the first is lower: 0.00437 for the first, 0.014 for the second.

Going from C82U A111U A120G A145G C150U C169U U176A to C82U A111U A120G A145G C150U C169U U176G, the reverse-splicing fitness falls from 0.0194 to 0.00481.

First: C82U A111U A120G C150U C169A U176A
Second: C82U A111U A120G C150U C169A U176G
The reverse-splicing fitness of the first is higher: 0.0156 for the first, 0.005 for the second.

Going from C82U A111U A120G C150U C169A U176C to C82U A111U A120G A145U U176C, the reverse-splicing fitness rises from 0.0129 to 0.0131.

First: C82U A111U A120G A145U U176G
Second: C82U A111U A120G A145U U176A
The reverse-splicing fitness of the first is lower: 0.0045 for the first, 0.012 for the second.

First: C82U A111U A120G C150A C169A U176A
Second: C82U A111U A120G C150A C169A U176G
The reverse-splicing fitness of the first is higher: 0.0189 for the first, 0.00561 for the second.

First: C82U A111U A120G C150A C169A U176C
Second: C82U A111U A120G C150A C169A
The reverse-splicing fitness of the first is higher: 0.0173 for the first, 0.0103 for the second.

Going from C82U A111U A120G C150A C169G to C82U A111U A120G C150A C169U, the reverse-splicing fitness falls from 0.0098 to 0.00823.

Compared with C82U A111U A120G C150A C169G U176C, C82U A111U A120G C150A C169G U176G is lower in reverse-splicing fitness: 0.0213 for the first, 0.00529 for the second.

First: C82U A111U A120G C150A C169G U176A
Second: C82U A111U A120G C169U U176A
The reverse-splicing fitness of the first is higher: 0.0221 for the first, 0.0215 for the second.

First: C82U A111U A120G C169U U176C
Second: C82U A111U A120G C169U U176G
The reverse-splicing fitness of the first is higher: 0.0161 for the first, 0.00594 for the second.

Compared with C82U A111U A120G C150U C169G, C82U A111U A120G C150U C169U is lower in reverse-splicing fitness: 0.00909 for the first, 0.00882 for the second.

First: C82U A111U A120G C150U C169A
Second: C82U A111U A120G A145U C150G C169G U176A
The reverse-splicing fitness of the first is higher: 0.0102 for the first, 0.00623 for the second.

Compared with C82U A111U A120G A145U C150G C169G U176G, C82U A111U A120G A145U C150G C169G U176C is higher in reverse-splicing fitness: 0.00385 for the first, 0.00435 for the second.
